In publication doi:10.1101/2019.12.20.884148:

Target: Galectin-3 (R&D Systems) (UniProt P17931)
Experiment: SPR

Sequence of UniProt P17931 (P17931 whole entry): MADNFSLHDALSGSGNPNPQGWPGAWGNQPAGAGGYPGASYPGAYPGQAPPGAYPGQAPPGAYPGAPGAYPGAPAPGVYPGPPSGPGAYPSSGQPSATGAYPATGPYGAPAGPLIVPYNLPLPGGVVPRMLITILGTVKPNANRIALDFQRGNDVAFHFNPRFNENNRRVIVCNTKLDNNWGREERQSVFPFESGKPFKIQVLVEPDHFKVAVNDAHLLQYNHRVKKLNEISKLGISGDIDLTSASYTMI

Question: Which Kd does the source give for “Bovine lubricin (bPRG4) (natural protein)” here?
Answer: Its Kd is 3.8 µM.
